According to publication PMC11650696:

Key:
[1] = molecular target: TLR5 (UniProt O60602)
[2] = molecular target: TLR5 (UniProt O60602); remark: listed apart in the source
[3] = molecular target: Naip5 and Naip6 (Naip5/6) (mouse (endogenous in BMDMs))

Sequence of UniProt O60602 (O60602 21-858): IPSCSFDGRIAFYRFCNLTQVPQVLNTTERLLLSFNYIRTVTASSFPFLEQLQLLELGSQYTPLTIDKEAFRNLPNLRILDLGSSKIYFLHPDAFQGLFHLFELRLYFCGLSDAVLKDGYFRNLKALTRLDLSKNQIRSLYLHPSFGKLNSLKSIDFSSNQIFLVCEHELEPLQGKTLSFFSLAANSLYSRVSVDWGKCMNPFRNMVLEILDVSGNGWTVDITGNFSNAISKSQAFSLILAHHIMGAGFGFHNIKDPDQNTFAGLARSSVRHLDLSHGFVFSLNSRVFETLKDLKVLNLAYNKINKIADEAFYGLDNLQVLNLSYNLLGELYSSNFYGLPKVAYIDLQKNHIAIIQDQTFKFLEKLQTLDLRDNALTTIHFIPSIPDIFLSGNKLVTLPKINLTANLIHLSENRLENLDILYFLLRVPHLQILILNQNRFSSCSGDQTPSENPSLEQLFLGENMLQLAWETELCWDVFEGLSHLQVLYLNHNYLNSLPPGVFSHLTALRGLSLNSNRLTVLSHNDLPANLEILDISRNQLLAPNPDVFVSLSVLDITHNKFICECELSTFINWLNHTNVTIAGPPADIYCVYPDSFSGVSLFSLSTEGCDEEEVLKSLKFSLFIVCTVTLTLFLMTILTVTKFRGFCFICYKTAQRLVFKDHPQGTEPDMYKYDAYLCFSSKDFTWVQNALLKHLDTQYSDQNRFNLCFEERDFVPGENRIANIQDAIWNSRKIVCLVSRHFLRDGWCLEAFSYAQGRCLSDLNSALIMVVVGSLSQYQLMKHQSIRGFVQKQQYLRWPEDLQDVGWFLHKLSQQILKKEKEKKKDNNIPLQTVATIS

| Substance | TLR5 stimulatory activity, EC50 (NF-κB luciferase reporter assay, stably transfected CHO K1 cells) [1] | TLR5 EC50 (NF-κB luciferase reporter assay, stably transfected CHO K1 cells) [2] | Inflammasome EC50 (IL-1β secretion of LPS-primed mouse BMDMs after transfection of the protein) [3] |
| --- | --- | --- | --- |
| FliC flagellin monomers isolated from S. Typhimurium strain SL1344 (ΔflgM) (from UniProt P06179 1-495) (natural protein) | 1.1 ng/mL | 1.2 ng/mL | 2 ng/mL |
| FliC^ΔD3 (from UniProt P06179 1-495) (natural protein) | – | 0.1 ng/mL | – |
